# Reference: the DeepSol protein solubility set
# Test: soluble on expression in E. coli; label from the status in PepcDB or PDB records
row,Sequence,soluble on expression in E. coli
1,MSLTKILIGQTAGFTGPAGEQVKEMTRGAQLYLDAVNRAGGVYGRRIELISEDDGFDANVSKQRAHTLLTDKQVFALFLSRGTPNTEAIMSEAHAVGAPMVAPSTGASIFFDRPDPLVFVVRAKYQTEIAELVHHFETLGLKRLALVNVNDSFGKDTEAGFTTATQHLPPSTHQIVTVDRLKPNIETATAEIGKFAPNAVILACAGTTAQALAEALTKHGTVSQMATLSNNSSTAFARSLGNMARGMMVTQVMPSPVRATSPIGRELTASAKAAGVMPSYGMMEGYASAKLLVEGLKRAGKAPTRASFVAGLEAAGTIDLGGLDIRNGRNNHKGSSFVEITVIGPHGTFIKEGHHHHHH,not soluble
2,MQLGDKQLVVQLACANQQRHNTNLPNSASAIAGIDLSQGAGRATEILCLMNMVTEDELKADDEYEEILEDVRDECSKYGIVRSLEIPRPYEDHPVPGVGKVFVEFASTSDCQRAQAALTGRKFANRTVVTSYYDVDKYHNRQF,not soluble
3,MQKTVVEIEKASHVLKLLGDKTRLTIMAILKQRECCVCELLEVFDMSQPAISQHLRKLKDAGLVKEDKRGQWIYYSLNSQNELYDFIQDILQHIPDQTENIRKIEETNPTLRCGC,soluble
4,MSNQYDPSQPVVFTDFSPKEGGMRTRLYIEGSNFGNDPTKIHITIGGEKTKTIGADGKKIYCMVPSKAFDGIINVRVDGPDGKPIAEHTFEEEFKYTPATIVGTLLRKVDEDNNSAFQEGSFDEGASIPSNDCMVFDPKYKDGDNRLLFSSNHSDGLHLIDLTERTVKRLFPRTGYSTMYSFTFSADGDTLLFTDDHGQDNTTRANIYYSLRRENFRRIRPYNYGRTAYSLVYMDDGTIFYTTWWEGKVYKMIRNGAIPNIDENAEVAFSLSQISAVGGSHTILFRHPSNKFMYMLSDNFGAVFRADYDPVAKTFGNPSIIAGNMNDKSFKEGTGGSARFNKPQFGVFVKNEKYGEGIGPDNDQYDFYFCDRENHCIWKLDPHGVASLAAGRSNENADGKIWGYVDGNPLHEARFNQPAGLAYDPDTDMFYIGDIDNKGIRYMTTELEHHHHHH,not soluble
5,MPGGRGRIGVILPANNAGMEYDLWKMAPEGVSIHSTRMKPTKGCEPENVEEFEKELKYSYSLLAEVSDIIIYGRTYGTHKHAHVIKRVIKDVVIPEESVYELLKKLNVRKLWIGTPYIKERTLEEVEWWRNKGFEIVGYDGLGKIRGIDISNTPIFTIYRLVKRHLNEVLKADAVYIACTALSTYEAVQYLHEDLDMPVVSENAAAMWEALNKLKIKAKLPGF,soluble
6,MHSYHNPGVPTALSIFEPLQDGSTISVHGHVRHGHHKNFAVELLSGPNVVLHVNFRFHHEHVVVMNSQFSGMWGPEIRHKNPLHHSEHFHLSIKVHAGYYHISVNGHHLADYPHRYPYQSVQAIGLKGDVHVDKVHFEGFHFQRRWDGHVDHGHSGYNAYGTETYVAPVFVQPNFMPYGAPPPPVQNFNPYR,not soluble
7,MRFSREALLELEASRLAPYAQKARDTRGRAHPEPESLYRTPYQKDRDRILHTTAFRRLEYKTQVLPGWAGDYYRTRLTHTLEVAQVSRSIARALGLNEDLTEAIALSHDLGHPPFGHTGEHVLNALMQDHGGFEHNAQALRILTHLEVRYPGFRGLNLTYEVLEGIATHEAAYSPGFKPLYEGQGTLEAQVVDLSDAIAYAAHDLDDGLRAGLLHPEELKEVELLQALALEEGLDLLRLPELDRRVLVRQLLGYFITAAIEATHRRVEEAGVQSAEAVRRHPSRLAALGEEAEKALKALKAFLMERFYRHPEVLRERRKAEAVLEGLFAAYTRYPELLPREVQAKIPEEGLERAVCDYIAGMTDRFALEAYRRLSP,soluble
8,MSLGTVTITEMDCVDGVHRIGVATLDNTPSLNALTFDMLLQLHDQLIKWQHDPHVVCVVLSGAGEKAFCAGGDVRAMYHVMHNESKEATVEFCTKYFALEYECDYLIHTYNKPIIGWGEGIVMGGGMGLFMGTSHKVVTPISRLAMPEINIGLYPDVGGTWFLSQIDPEVGLFLGLTGALVNSSDAVTTGLADWLLLEEQYPTLLKELQKVPWGTSGAKELVSALLALLEEQIIDSKPTTQICPHLEQIKEACKGVDLNLIAQRIMAMEDSSPWIAGAKETFSSGSPITAHICFRQVKEYHRLPLADCFRLELSLSVRCALLGEFEEGVRARLIDRDGEPNWMFKTVSEVDEDVIDLLFTSLWADAEHPLAKLGEGHHHHHH,soluble
9,MNCMWCDSTEAKESLNTVYWELPDGTKAIEIQETPCISCSSCGMDYQSDHTVKEIEDQLFLIYTKDLPKQLTYEELMGRPRLLKRNYFDF,not soluble
10,MGHHHHHHSHMATASPSVFLLMVNGQVESAQFPEYDDLYCKYCFVYGQDWAPTAGLEEGISQITSKSQDVRQALVWNFPIDVTFKSTNPYGWPQIVLSVYGPDVFGNDVVRGYGAVHVPFSPGRHKRTIPMFVPESTSKLQKFTSLCLVASSDLQAAPPTEDK,not soluble
11,GMAYEQFAYVYDELMQDVPYPEWVAWVLEQVEPGKRIADIGCGTGTATLLLADHYEVTGVDLSEEMLEIAQEKAMETNRHVDFWVQDMRELELPEPVDAITILCDSLNYLQTEADVKQTFDSAARLLTDGGKLLFDVHSPYKMETLFNGKTYATHAEQSSYIWFADPGEEPLSVVHELTFFIEGEDGRYDRVDETHHQRTYPPEQYITWLREAGFRVCAVTGDFKSDAPTETAERIFFVAEKI,soluble
12,MGSDKIHHHHHHMTGQMNILLANPRGFCAGVDRAISIVERALELFSPPIYVRHEVVHNRYVVQNLKDRGAIFVEELDQVPDNSIVIFSAHGVSQAVRAEAKKRGLKVFDATCPLVTKVHLQVTRASRKGVECILIGHEGHPEVEGTMGQYDNPEGGVYLIESVEDVEALQVKDPENLCFVTQTTLSVDDTLDIIAALQAKFPSIEGPRKDDICYATQNRQDAVRSLATQAKLFIVVGSKNSSNSNRLRELAEKSGAQAYLVDSAADVKAEWFANVDKVAVTAGASAPEVLVKQVIDAITHLAPSVVTEVEGRKEDVVFAVPVELR,not soluble
13,MSDTEKYVARPAVGHLPLDDSWTPTSAEAIQDEPSPDEEEYKRQYTCRMVPNEGPLYQHYMLEAVAVADDEVKIPLEEVKEEPVELPAAVVHEVVALKPATRRESSISSDSGRGADCSTTSASALTSNTSMRRDRLVGTSNFGSQRSLWCELPEVRAAGLLEKLDDECKLRQEAYFEVITSEASYLRSLNVLITHFMASPQMLGSKSALSVLSDSDRKHLFSNIFAVRDCSERLLCDLETRLEENLILDDICDILSDHFDKHFEVYIKYCSNQVYQDRTLRRLKTENPGFLSAVQRLEENKQCQGLDMRSFLMLPMQRVTRYPLLLYAILDRITTTDDRYKTATDALTSSNRVVRDCNEGARRMERTEQLLDIDRRLIYKDADLKRIPLVSNSRYLVKKGVLTQLVERRSSNILQSRQKARTLHVFLFSDMIMITKKKLNGTFVCKDYAARRFVDMQPIEPDNPKIPLGATSNLVGRPHLFLCTLMRNARDKQTELLLSADSETDRERWLSAVRPPTSTNPEEKIYAEWDCPQALVVHAYQPSQADELQLNIGDSLNILRKMPDGWLYGERAGDGLGGWFPSSYVQAIINDHTRANNYRQRLRIIQAASGWHGNASPSSTRSGGMPLMDRLRRMSNPKTYFQSGTVGL,not soluble
14,SNAMIKRPIHMSHDFLAEVLDDESIVVDATMGNGNDTAFLAGLSKKVYAFDVQEQALGKTSQRLSDLGIENTELILDGHENLDHYVREPIRAAIFNLGYLPSADKSVITKPHTTLEAIEKILDRLEVGGRLAIMIYYGHDGGDMEKDAVLEYVIGLDQRVFTAMLYQPLNQINTPPFLVMLEKLQ,soluble
15,GPGSMLAAVAVPSSSSSTAPGTNTAVSDYFLQKIHELRATQKRTLDNFERLEAQRNDLNRRVRHLKEEVQMLQESGSLVVDVVRVMGKNKVLVKAGSGQGKMVVDVDKSVDFKDLTPNARVALRSGTSAIHYILPTKVDPLVSLMKVEKAGKESTYDEIGGLSRQVKEIKEVIELPVKHPKLFEALGIEQPKGVLLYGPPGTGKTLLARAVAHHTDCTFIRVSGAELVQKYIGEGARMVRELFVMAREHSPSIIFMDEIDSIGSSRLESGENGDSEVQRTMLELLNQLDGFEASKNIKVIMATNRMDILDEALLRPGRIDRKIEFPAPDEAARFEILKIHSRKMNLTRGIDLKDIAKKTSNCSGAELKAVCTEAGMFALRERRVHITHEDFVLAVAKVMHKDQDKNVSLKKMWK,not soluble
16,MSDNDDDFMCDDDEDYGLEYSEDSNSEPDVDLENQYYNSKALKEEEPKAALASFQKVLDLENGEKGEWGFKALKQMIKINFRLCNYDEMMVRYKQLLTYIKSAVTRNHSEKSINSILDYISTSKNMALLQNFYETTLDALRDAKNDRLWFKTNTKLGKLYFDRSDFTKLQKILKQLHQSCQTDDGEDDLKKGTQLLEIYALEIQMYTVQKNNKKLKALYEQSLHIKSAIPHPLIMGVIRECGGKMHLREGEFEKAHTDFFEAFKNYDESGSPRRTTCLKYLVLANMLMKSGINPFDSQEAKPYKNDPEILAMTNLVNSYQNNDINEFETILRQHRSNIMADQFIREHIEDLLRNIRTQVLIKLIRPYKNIAIPFIANALNIEPAEVESLLVSCILDDTIKGRIDQVNQVLQLDKINSSASRYNALEKWSNQIQSLQFAVVQKMA,soluble
17,GSHMDADGKLLTEGGENENLRKNASKKETSLFQGFKSYLPIAELAIENTERLNY,soluble
18,MLTAATEVLAAADGPGSAESAWAWRDAPIATLVQRIQQLQNERAQAFRRLDQAHRQYLLSGQHYDFPSYRSVVHEVTQAFAAASREVLAVEAELAGPRAQPVLARHVRSLQELEQTRLATVALLQVMGTPGVSEQDPEKLHQLKIKVIKTMEAIGEVLQELRFDAESAE,soluble
19,MGSDKIHHHHHHMQIAVSGGKGGTGKSTVAINLAVELAKKFKLVLADLDVEAPNDHLLLGVELQNEREVHQFMPKFNYSKCIKCRKCAEACEEHAIVTLRDGTPFLMPTLCSGCRACEIVCPVPGAIEEGSRLIGHTYETLTPYGFTLVTGKLREGEERSMPLVVAAKRRAKELKWDLLIVDTAAGTGNTVSKAIEGSQLLIAVTEPTPLGIHDTELILKLGELMRIETWIVINRSDLGDVKEVYRRAKKYNAEVIAEIPYSENIVKTYVAGKPIVTTDYPEAGIFREIAEKVYEFLR,not soluble
20,RGRLKVFLGAAPGVGKTYAMLQAAHAQLRQGVRVMAGVVETHGRAETEALLNGLPQQPLLRTEYRGMTLEEMDLDALLKAAPSLVLVDELAHTNAPGSRHTKRWQDIQELLAAGIDVYTTVNVQHLESLNDQVRGITGVQVRETLPDWVLQEAFDLVLIDLPPRELLERLRDGKVYVPEQARAAIDAFFTQTNLTALREMAMQTAAAQVDNDLAQGYRQLGQSAP,soluble
21,MSLENLQTNFSLVQGSTKKLNGMGDDGSPPAKKMITDIHVNGKTINKVPTVKKEHLDDYGEAPVETDGEHVKRTCTSVPETLHLNPSLKHTLAQFHLSSQSSLGGPAAFSARHSQESMSPTVFLPLPSPQVLPGPLLIPSDSSTELTQTVLEGESISCFQVGGEKRLCLPQVLNSVLREFTLQQINTVCDELYIYCSRCTSDQLHILKVLGILPFNAPSCGLITLTDAQRLCNALLRPREGHHHHHH,soluble
22,MEIKRQQEIVEAYHYDMRVPDSEVETDLRVSFSPIEVEEENYPENSSALVARLEFRIVFDEFVLSGAISQINHIIDRKIEKQEDISQEEVDELVRPLFSIVERLSYEVTEIALDRPGVQLNFQQSEEA,not soluble
